The record followed here is article PMC2761489.

Assay [1] deals with GMPCPP microtubules (GMPCPP-tubulin microtubule lattice; seeds and GMPCPP-grown extensions) of porcine brain tubulin (porcine) (UniProt P02550). As to the kind of experiment: two-color TIRF microscopy; GMPCPP seeds immobilised on coverslips (biotin-neutravidin or anti-rhodamine antibodies); 50 nM EB1-GFP with 12 uM free tubulin (10-24 uM in other runs) and 1 mM GTP in Imaging Buffer (BRB80, glucose, glucose-oxidase, catalase, casein, beta-mercaptoethanol), no additional salt; 35 C.

For assay [2], the target named is Microtubule extensions grown from free porcine brain tubulin with GTP (GDP-tubulin lattice with growing ends) (porcine) (UniProt P02550). The description is as above.

“C-terminus GFP-tagged EB1 (from UniProt Q15691 1-268) (natural protein)”: the average fluorescence intensity, seed minus background in assay [1] turned out to be 62.6 AU. Further, the average fluorescence intensity, extension minus background in assay [2] was found to be 12.8 AU.
